The results in this text go back to patent US20200024330A1.

Holding throughout (assay): cell-based or functional assay
The target of assay [1] is HIV-1 93IN905 envelope glycoprotein (Env) on pseudovirus (HIV-1).
The target of assay [2] is HIV-1 IAVI-C3 envelope protein (Env) on pseudovirus (HIV-1).
Assay [3] concerns the target HIV-1 MGRM-C-024 Env (HIV-1).
In assay [4] the target is HIV-1 APV-6 envelope protein (Env) on pseudovirus (HIV-1).
Assay [5] concerns the target HIV-1 APV6 envelope glycoprotein (Env) on pseudovirus (HIV-1).
Assay [6] concerns the target HIV-1 Env of isolate MGRM-D-002 (clade D) (HIV-1).
Assay [7] deals with HIV-1 Env of isolate MGRM-D-011 (HIV-1).
For assay [8], the target named is HIV-1 92UG031 envelope glycoprotein (Env) (HIV-1).
The target in assay [9] is HIV-1 Env of pseudovirus 93TH305, clade B (HIV-1).
Assay [10] has as its target HIV-1 Env of isolate MGRM-D-014 (HIV-1).
The target in assay [11] is HIV-1 Env of isolate MGRM-D-008 (clade D) (HIV-1).
The target of assay [12] is HIV-1 92RW009 envelope glycoprotein (Env) (HIV-1).
For assay [13], the target named is HIV-1 Env of pseudovirus THR0.18 (Acute), clade B (HIV-1).
The target in assay [14] is HIV-1 98IN022 envelope glycoprotein (Env) on pseudovirus (HIV-1).
The target of assay [15] is HIV-1 Env of isolate MGRM-F1-022 (HIV-1).
The target in assay [16] is HIV-1 CAAN.A2 Env (pseudovirus) (HIV-1).
In assay [17] the target is HIV-1 93TH305 Env (pseudovirus) (HIV-1).
Assay [18] addresses HIV-1 Env of isolate MGRM-C-010 (pseudovirus) (HIV-1 isolate MGRM-C-010, subtype C).
The target of assay [19] is HIV-1 Env of isolate 98CN006 (subtype CRF08 BC) (HIV-1).
Assay [20] deals with HIV-1 Env of isolate MGRM-F1-017 (HIV-1).
Assay [21] addresses HIV-1 Env of isolate MG RM-D-012 (subtype D) (HIV-1).
The target of assay [22] is HIV-1 MGRM-Chronic-B-001 Env (pseudovirus) (HIV-1).
In assay [23] the target is HIV-1 JR-CSF Env N188A (HIV-1 (isolate JR-CSF)) (UniProt P20871).
Assay [24] concerns the target HIV-1 JR-CSF Env R166A (HIV-1 (isolate JR-CSF)) (UniProt P20871).
For assay [25], the target named is HIV-1 93UG077 envelope glycoprotein (Env) on pseudovirus (HIV-1).
Assay [26] deals with HIV-1 JR-CSF Env I165A (HIV-1 (isolate JR-CSF)) (UniProt P20871).
The target of assay [27] is HIV-1 Env of isolate MGRM-G-013 (subtype G) (HIV-1).
Assay [28] addresses HIV-1 Env of isolate MGRM-G-004 (subtype G) (HIV-1).
Assay [29] deals with HIV-1 Env of isolate MGRM-D-021 (HIV-1).
Assay [30] concerns the target HIV-1 Env of isolate 93IN905 (HIV-1).
In assay [31] the target is HIV-1 Env of isolate 98IN022 (HIV-1).
The target of assay [32] is HIV-1 Env of isolate 93MW959 (HIV-1).
In assay [33] the target is HIV-1 Env of isolate VLGCB3 (HIV-1).
For assay [34], the target named is HIV-1 Env of isolate 97ZA012 (HIV-1).

PGT-143 (4980_N08) (antibody), sequence (VH): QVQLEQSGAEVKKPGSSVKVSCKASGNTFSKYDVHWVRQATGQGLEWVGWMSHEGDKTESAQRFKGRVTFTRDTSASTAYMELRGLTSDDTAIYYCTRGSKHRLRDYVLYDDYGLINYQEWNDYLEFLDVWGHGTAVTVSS
PGT-143 (4980_N08) (antibody), sequence (VL): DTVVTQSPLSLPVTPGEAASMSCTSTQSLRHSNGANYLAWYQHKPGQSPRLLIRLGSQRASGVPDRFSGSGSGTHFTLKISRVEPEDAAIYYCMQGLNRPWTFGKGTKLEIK
PGT-142 (4995_E20) (antibody), sequence (VH): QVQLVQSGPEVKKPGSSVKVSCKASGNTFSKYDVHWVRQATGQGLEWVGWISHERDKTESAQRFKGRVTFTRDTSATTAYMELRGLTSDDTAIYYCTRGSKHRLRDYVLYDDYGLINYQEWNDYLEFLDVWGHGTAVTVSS
PGT-142 (4995_E20) (antibody), sequence (VL): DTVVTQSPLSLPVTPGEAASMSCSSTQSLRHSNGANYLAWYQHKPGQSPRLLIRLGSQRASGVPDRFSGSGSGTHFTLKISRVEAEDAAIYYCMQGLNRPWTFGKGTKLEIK
PGT-141 (4964_G22; 4993_K13) (antibody), sequence (VH): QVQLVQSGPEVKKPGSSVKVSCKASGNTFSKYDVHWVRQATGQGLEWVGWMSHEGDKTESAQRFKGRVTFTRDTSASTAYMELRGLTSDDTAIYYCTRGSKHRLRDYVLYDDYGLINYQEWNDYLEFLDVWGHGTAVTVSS
PGT-144 (4970_K22) (antibody), sequence (VH): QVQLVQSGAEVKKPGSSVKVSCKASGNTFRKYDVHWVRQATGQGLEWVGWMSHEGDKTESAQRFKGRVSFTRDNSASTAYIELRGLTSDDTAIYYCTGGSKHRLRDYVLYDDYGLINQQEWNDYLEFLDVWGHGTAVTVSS
PGT-144 (4970_K22) (antibody), sequence (VL): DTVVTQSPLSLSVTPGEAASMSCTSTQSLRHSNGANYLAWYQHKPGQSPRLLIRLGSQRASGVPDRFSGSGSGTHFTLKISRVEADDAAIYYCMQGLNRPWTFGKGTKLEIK

Turning to 1496_C09 (PG9) (TCN-109) (antibody), the IC50 (ug/ml), neutralizing activity came out at 0.048 µg/mL in assay [1] and 0.214 µg/mL in assay [5]. The values for the IC50 neutralization in assay [1] and in [5] were 0.048 µg/mL and 0.214 µg/mL, respectively. For the same substance, the IC80, neutralization came out at 0.308 µg/mL in assay [1] and 1.13 µg/mL in assay [5]. The same substance registered an IC90 (pseudovirus neutralization) in assay [1] of 1.89 µg/mL. The IC90, neutralization worked out at 0.981 µg/mL in [1] and 3.21 µg/mL in [5]. The IC95, neutralization in assay [1] was 3.31 µg/mL; in [5] it was 9.65 µg/mL. Besides, the neutralization IC50 in assay [2] is 12.9 µg/mL; in assay [4], 0.0869 µg/mL. This substance registered an IC50 in assay [3] of 0.22 µg/mL. In addition, the IC50 (µg/ml), pseudovirus neutralization came to 0.027 µg/mL in [6]; 3.08 µg/mL in assay [8]; 2.08 µg/mL in assay [9]; 6.86 µg/mL in assay [11]; 0.03 µg/mL in assay [12]; 12.4 µg/mL in assay [13]. Besides, the IC50 (µg/ml), pseudovirus neutralization in assay [14] was found to be 0.006 µg/mL. Also, the IC50 (µg/mL), pseudovirus neutralization in assay [7] worked out at 0.071 µg/mL; in assay [10], 0.023 µg/mL.
For the substance 4838_L06 (PGT-121) (antibody), the IC50 in assay [15] is 0.104 µg/mL; in assay [20], 16.9 µg/mL. For the same substance, the IC50, pseudovirus neutralization in assay [16] worked out at 0.011 µg/mL; in assay [17] it was 0.007 µg/mL; in assay [22], 0.102 µg/mL. The substance also returned an IC50 (µg/mL) neutralization in assay [18] greater than 50 µg/mL. Also, the IC50 (µg/mL), pseudovirus neutralization in [19] was 0.01 µg/mL; in assay [21] it was greater than 50 µg/mL.
For 4858_P08 (PGT-123) (antibody), the IC50 (ug/ml), neutralizing activity in assay [1] is 0.0071 µg/mL; in assay [5] it was 0.0327 µg/mL; in [25], 0.0303 µg/mL. The IC50, pseudovirus neutralization in assay [1] stood at 0.0071 µg/mL; in assay [5] it was 0.0328 µg/mL; in assay [16] it was 0.015 µg/mL; in [17] it was 0.008 µg/mL; in [25] it was 0.0303 µg/mL; in [22], 0.15 µg/mL. The values for the IC80, pseudovirus neutralization in assay [1], in assay [5] and in assay [25] were 0.0281 µg/mL, 0.145 µg/mL and 0.143 µg/mL, respectively. Further, the values for the IC90 (pseudovirus neutralization) in assay [1], in assay [5] and in [25] were 0.0625 µg/mL, 0.339 µg/mL and 0.35 µg/mL, respectively. Besides, the IC95, pseudovirus neutralization in assay [1] was found to be 0.131 µg/mL; in assay [5], 0.726 µg/mL; in assay [25] it was 0.78 µg/mL. In addition, the Fold IC50 increase relative to wild-type in [23] turned out to be 1.1 fold; in [24], 0.9 fold; in assay [26], 2.2 fold. Also, the IC50 in assay [15] was 0.075 µg/mL; in assay [20] it was greater than 50 µg/mL. Further, in assay [18], the IC50 (µg/mL) neutralization is greater than 50 µg/mL. In addition, the values for the IC50 (µg/mL), pseudovirus neutralization in assay [19] and in assay [21] were 0.008 µg/mL and greater than 50 µg/mL, respectively.
Regarding 4877_D15 (PGT-122) (antibody), the IC50 (ug/ml), neutralizing activity in assay [1] is 0.0138 µg/mL; in assay [5] it was 0.0851 µg/mL; in [25], 0.191 µg/mL. The IC50 was 0.277 µg/mL in assay [15] and greater than 50 µg/mL in assay [20]. Also, the IC50, pseudovirus neutralization in [16] amounted to 0.011 µg/mL; in assay [17] it was 0.013 µg/mL; in [22], 0.138 µg/mL. Also, the IC50 (µg/mL) neutralization in assay [18] is greater than 50 µg/mL. The IC50 (µg/mL), pseudovirus neutralization in [19] is 0.021 µg/mL; in assay [21], greater than 50 µg/mL.
Consider 5123_A06 (PGT-125) (antibody), for which the IC50 (ug/ml), neutralizing activity is 0.0137 µg/mL in [1], 0.0359 µg/mL in assay [5] and 0.0262 µg/mL in assay [25]. The neutralization IC50 stood at 0.0137 µg/mL in assay [1], 0.0359 µg/mL in [5] and 0.0262 µg/mL in assay [25]. Further, the neutralization IC80 was determined as 0.0494 µg/mL in assay [1], 0.133 µg/mL in assay [5] and 0.0926 µg/mL in assay [25]. In addition, the neutralization IC90 came to 0.106 µg/mL in assay [1], 0.288 µg/mL in [5] and 0.206 µg/mL in assay [25]. In addition, the neutralization IC95 in assay [1] came to 0.216 µg/mL; in [5], 0.597 µg/mL; in [25], 0.487 µg/mL. Besides, the Fold IC50 increase relative to wild-type came out at 0.7 fold in assay [23], 1.5 fold in [24] and 2.3 fold in [26]. The IC50 in assay [15] and in assay [20] was greater than 50 µg/mL in each case. Also, the IC50, pseudovirus neutralization in [16] is 5.47 µg/mL; in assay [17], 0.008 µg/mL; in [22] it was greater than 50 µg/mL. This substance returned an IC50 (µg/mL) neutralization in [18] greater than 50 µg/mL. The IC50 (µg/mL), pseudovirus neutralization in [19] was 0.201 µg/mL; in assay [21], greater than 50 µg/mL.
Take 5141_B17 (PGT-126) (antibody): the IC50 (ug/ml), neutralizing activity in assay [1] was determined as 0.0194 µg/mL; in assay [5], 0.0249 µg/mL; in [25], 0.0256 µg/mL. The Fold IC50 increase relative to wild-type in assay [23] is 0.8 fold; in assay [24] it was 1 fold; in assay [26], 2.5 fold. The IC50 in assay [15] and in assay [20] was greater than 50 µg/mL throughout. Besides, the figures for the IC50, pseudovirus neutralization in assay [16], in [17] and in [22] were 0.273 µg/mL, 0.013 µg/mL and greater than 50 µg/mL, respectively. This substance also gave an IC50 (µg/mL) neutralization in [18] greater than 50 µg/mL. The results for the IC50 (µg/mL), pseudovirus neutralization in assay [19] and in [21] were 0.046 µg/mL and greater than 50 µg/mL, respectively.
5145_B14 (PGT-127) (antibody): the Fold IC50 increase relative to wild-type in [23] was found to be 0.8 fold; in assay [24], 1.6 fold; in [26], 1.7 fold. Further, the IC50 in [15] and in [20] was greater than 50 µg/mL throughout. The IC50, pseudovirus neutralization in assay [16] was 0.371 µg/mL; in assay [17], 0.017 µg/mL; in assay [22] it was greater than 50 µg/mL. The IC50 (µg/mL) neutralization in assay [18] is greater than 50 µg/mL. Also, the IC50 (µg/mL), pseudovirus neutralization in [19] is 0.067 µg/mL; in assay [21], greater than 50 µg/mL.
Consider PGT-141 (4964_G22; 4993_K13) (antibody), for which the neutralization IC50 in [27] and in [28] was greater than 50 µg/mL each time.
Consider PGT-142 (4995_E20) (antibody), for which the neutralization IC50 in [27] and in assay [28] was greater than 50 µg/mL each time.
Turning to PGT-143 (4980_N08) (antibody), the neutralization IC50 in assay [27] and in [28] was greater than 50 µg/mL in each case.
On to PGT-144 (4970_K22) (antibody), for which the neutralization IC50 in [27] and in assay [28] was greater than 50 µg/mL each time.
On to PGV04 (antibody), for which the neutralization IC50 is 0.168 µg/mL in assay [27] and greater than 50 µg/mL in [28]. The IC50 (µg/mL), pseudovirus neutralization is 0.025 µg/mL in assay [7], greater than 50 µg/mL in assay [29] and 0.194 µg/mL in assay [10].
Consider VRC01 (antibody), for which the neutralization IC50 in assay [30] is 0.138 µg/mL; in assay [27] it was 0.553 µg/mL; in assay [31] it was 0.342 µg/mL; in [32] it was 0.053 µg/mL; in assay [33] it was 0.108 µg/mL; in [28], greater than 50 µg/mL. The neutralization IC50 in assay [34] was 0.088 µg/mL. Also, the IC50, pseudovirus neutralization in assay [15] is 0.055 µg/mL; in assay [7], 0.075 µg/mL; in assay [20] it was 1.08 µg/mL; in assay [29], 33.4 µg/mL; in [10], 0.332 µg/mL.
